Measurements from patent US20250163449A1, “HERBICIDE-TOLERANT GENES AND METHOD FOR USING SAME” (QINGDAO KINGAGROOT CHEMICAL COMPOUND CO., LTD., priority 2022, published 2025).

Experiments:
[1] = Conversion rate of substrate compound A by E. coli expressing each engineered protein (HPLC, oxygenase activity); assay type: biochemical
Description: The high-throughput bacterial protein expression was achieved by cloning the synthesized gene that encodes each engineered protein into a bacterial expression vector with a C-terminal histidine tag (His-tag). The vectors were transformed into Escherichia coli (E. coli), and expression of the engineered proteins was induced. E. coli cultures were selected and cultured in centrifuge tubes overnight, meanwhile, added with substrates and IPTG, and the cultures were centrifuged to pellet the bacteria the next day. Alternatively, E. coli cultures were selected and cultured in centrifuge tubes overnight, and centrifuged to pellet the bacteria after adding substrates for reaction the next day. The supernatant of reaction solution was pipetted into a 96-well plate and the absorbance at 510 nm from 4-aminoantipyrine and potassium ferricyanide was measured by an endpoint colorimetric method to detect phenol products. Substrate reduction and product yield were measured by high performance liquid chromatography (HPLC) to detect the oxygenase activity (i.e., enzymatic activity) of the engineered proteins, and the activities of the proteins were compared by calculating conversion rates.
Conversion rate=(Peak area of initial substrate−Peak area of substrate after reaction)/Peak area of initial substrate*100%

[2] = Enzymatic kinetic measurements of purified proteins with compound A as substrate; assay type: biochemical; details: purified protein, compound A 0-1000 μM as substrate
Protocol: Based on the results of HPLC, representative engineered proteins were selected for protein purification. Further protein characterization, such as Km, Vmax and Kcat, was performed on the 8 engineered proteins from Table 2. Conventional Ni column affinity chromatography was used for protein purification and protein extract purity was assessed by SDS-PAGE analysis. After determining protein concentration by BCA method, enzyme activity was determined.

[3] = test system: rice (Jinjing 818); test: Transgenic rice seedlings, compound B added to medium at rooting phase; assay type: in vivo; details: at least 1 μM compound B in medium (0.5 and 1 μM for SEQ ID NO: 42), 17-26 days
Protocol: Plant transformation vectors were constructed, each comprising a recombinant DNA molecule encoding an engineered protein (SEQ ID NO: 42/38/82/86/102/106/126/138/142) with the protein-coding sequence optimized for monocot expression, and rice (Jinjing 818) calli were transformed with these vectors using Agrobacterium tumifaciens and standard methods known in the art. Different concentrations of hormone herbicide compound B were added at the rooting phase of the rice seedlings to test hormone resistance, wherein, the test results of control Jinjing 818 plants and transgenic Jinjing 818 plants comprising the protein-coding gene of SEQ ID NO: 42 after adding 0.5 μM and 1 μM compound B to medium for 19 days are shown in FIG. 1. The test results of control Jinjing 818 plants and transgenic Jinjing 818 plants comprising the protein-coding genes of SEQ ID NO: 38/82/86/102/106/126/138/142 after adding 1 μM compound B to medium are shown in FIG. 5-11.

[4] = test system: rice (Jinjing 818); test: Transgenic rice T0 plantlets in greenhouse sprayed with compound B; assay type: in vivo; details: medicated medium test and greenhouse spraying test for T0 generation, compound B
Protocol: Then, the obtained regenerated TO generation transgenic plantlets grew in the greenhouse, and were sprayed with compound B at the growth stage when approximately two leaves unfolded and the third one just appearing. Resistance levels of plants were recorded and evaluated after spraying treatment, wherein, the test results of control Jinjing 818 plants and transgenic Jinjing 818 plants comprising the protein-coding gene of SEQ ID NO: 42 after applying 20 g, 40 g, 60 g, 80 g, 100 g, 120 g/mu (1 mu=1/15 ha) compound B for corresponding days (DAT) are shown in FIG. 2.

[5] = test system: Arabidopsis thaliana; test: T2 transgenic Arabidopsis thaliana seeds screened on compound A medium; assay type: in vivo; details: 0.15 μM compound A in medium, 11-24 days
Description: Engineered proteins were selected for Arabidopsis thaliana transformation and plant analysis. DNA constructs were transformed into Arabidopsis thaliana using Agrobacterium tumifaciens and standard methods known in the art.
The transformed TO transgenic plantlets grew in the greenhouse. T1 generation Arabidopsis thaliana plant seeds produced by transformation of all constructs were collected after approximately 60 days of growth. Transgenic T1 generation Arabidopsis thaliana plants were screened by adding HYG to medium for T1 generation. T1 plants were selfed to produce seeds of T2 generation Arabidopsis thaliana plants. Wherein, compound A was added to medium to screen and test T2 generation Arabidopsis thaliana plant seeds, that were produced by all constructs, comprising unique events screened by T1 generation.

[6] = Reaction condition 2: bacteria cultured overnight, 8 times dose of substrate compound A of condition 1 added, react 3 hours the next day

B1: SEQ ID NO: 38: RdpA mutant L82H + V187L + F182W + R104G (protein)
chain: MHAALSPLSQRFERIAVQPLTGVLGAEITGVDLREPLDDSTWNEILDAFHTYQVIYFPGQAITNEQHIAFSRRFGPVDPVPHLKSIEGYPEVQMIRREANESGGVIGDDWHTDSTFLDAPPAAVVMRAIDVPEHGGDTGFLSMYTAWETLSPTMQATIEGLNVVHSATRVFGSLYQAQNRRWSNTSLKVMDVDAGDRETVHPLVVTHPGSGRKGLYVNQVYCQRIEGMTDAESKPLLQFLYEHATRFDFTCRVRWKKDQVLVWDNLCTMHRAVPDYAGKFRYLTRTTVGGVRPAR
Conversion rate ([1]; Reaction condition 1: bacteria cultured overnight, substrate compound A and IPTG added to react overnight): 96.9% | Kcat [2]: 0.43 S^−1 | Km [2]: 54.6 µM | Vmax [2]: 49.9 | drug resistance (tolerance to compound B) compared with wild-type plants [3]: exhibited better drug resistance | tolerance compared with the wild types (summary) [4]: exhibited apparent tolerance

B2: SEQ ID NO: 86: RdpA mutant L82H + V187L + F182W + G103L + R180S (protein)
chain: MHAALSPLSQRFERIAVQPLTGVLGAEITGVDLREPLDDSTWNEILDAFHTYQVIYFPGQAITNEQHIAFSRRFGPVDPVPHLKSIEGYPEVQMIRREANESLRVIGDDWHTDSTFLDAPPAAVVMRAIDVPEHGGDTGFLSMYTAWETLSPTMQATIEGLNVVHSATRVFGSLYQAQNSRWSNTSLKVMDVDAGDRETVHPLVVTHPGSGRKGLYVNQVYCQRIEGMTDAESKPLLQFLYEHATRFDFTCRVRWKKDQVLVWDNLCTMHRAVPDYAGKFRYLTRTTVGGVRPAR
Conversion rate [1, 6]: 76.8% | drug resistance (tolerance to compound B) compared with wild-type plants [3]: exhibited better drug resistance | tolerance compared with the wild types (summary) [4]: exhibited apparent tolerance | drug resistance compared with wild-type Arabidopsis thaliana (longer roots and larger leaves) [5]: exhibited better drug resistance

B3: SEQ ID NO: 102: RdpA mutant L82H + V187L + F182W + G103L + T112A (protein)
chain: MHAALSPLSQRFERIAVQPLTGVLGAEITGVDLREPLDDSTWNEILDAFHTYQVIYFPGQAITNEQHIAFSRRFGPVDPVPHLKSIEGYPEVQMIRREANESLRVIGDDWHADSTFLDAPPAAVVMRAIDVPEHGGDTGFLSMYTAWETLSPTMQATIEGLNVVHSATRVFGSLYQAQNRRWSNTSLKVMDVDAGDRETVHPLVVTHPGSGRKGLYVNQVYCQRIEGMTDAESKPLLQFLYEHATRFDFTCRVRWKKDQVLVWDNLCTMHRAVPDYAGKFRYLTRTTVGGVRPAR
Conversion rate [1, 6]: 93.2% | drug resistance (tolerance to compound B) compared with wild-type plants [3]: exhibited better drug resistance | tolerance compared with the wild types (summary) [4]: exhibited apparent tolerance | drug resistance compared with wild-type Arabidopsis thaliana (longer roots and larger leaves) [5]: exhibited better drug resistance

B4: SEQ ID NO: 106: RdpA mutant L82H + V187L + F182W + G103L + T112S (protein)
chain: MHAALSPLSQRFERIAVQPLTGVLGAEITGVDLREPLDDSTWNEILDAFHTYQVIYFPGQAITNEQHIAFSRRFGPVDPVPHLKSIEGYPEVQMIRREANESLRVIGDDWHSDSTFLDAPPAAVVMRAIDVPEHGGDTGFLSMYTAWETLSPTMQATIEGLNVVHSATRVFGSLYQAQNRRWSNTSLKVMDVDAGDRETVHPLVVTHPGSGRKGLYVNQVYCQRIEGMTDAESKPLLQFLYEHATRFDFTCRVRWKKDQVLVWDNLCTMHRAVPDYAGKFRYLTRTTVGGVRPAR
Conversion rate [1, 6]: 86.3% | drug resistance (tolerance to compound B) compared with wild-type plants [3]: exhibited better drug resistance | tolerance compared with the wild types (summary) [4]: exhibited apparent tolerance

B5: SEQ ID NO: 126: RdpA mutant L82H + V187L + F182W + R104G + T112S + R180K (protein)
chain: MHAALSPLSQRFERIAVQPLTGVLGAEITGVDLREPLDDSTWNEILDAFHTYQVIYFPGQAITNEQHIAFSRRFGPVDPVPHLKSIEGYPEVQMIRREANESGGVIGDDWHSDSTFLDAPPAAVVMRAIDVPEHGGDTGFLSMYTAWETLSPTMQATIEGLNVVHSATRVFGSLYQAQNKRWSNTSLKVMDVDAGDRETVHPLVVTHPGSGRKGLYVNQVYCQRIEGMTDAESKPLLQFLYEHATRFDFTCRVRWKKDQVLVWDNLCTMHRAVPDYAGKFRYLTRTTVGGVRPAR
Conversion rate [1, 6]: 92.6% | drug resistance (tolerance to compound B) compared with wild-type plants [3]: exhibited better drug resistance | tolerance compared with the wild types (summary) [4]: exhibited apparent tolerance | drug resistance compared with wild-type Arabidopsis thaliana (longer roots and larger leaves) [5]: exhibited better drug resistance

B6: SEQ ID NO: 138: RdpA mutant L82H + V187L + F182W + G103L + R180T (protein)
chain: MHAALSPLSQRFERIAVQPLTGVLGAEITGVDLREPLDDSTWNEILDAFHTYQVIYFPGQAITNEQHIAFSRRFGPVDPVPHLKSIEGYPEVQMIRREANESLRVIGDDWHTDSTFLDAPPAAVVMRAIDVPEHGGDTGFLSMYTAWETLSPTMQATIEGLNVVHSATRVFGSLYQAQNTRWSNTSLKVMDVDAGDRETVHPLVVTHPGSGRKGLYVNQVYCQRIEGMTDAESKPLLQFLYEHATRFDFTCRVRWKKDQVLVWDNLCTMHRAVPDYAGKFRYLTRTTVGGVRPAR
Conversion rate [1, 6]: 54.6% | drug resistance (tolerance to compound B) compared with wild-type plants [3]: exhibited better drug resistance | tolerance compared with the wild types (summary) [4]: exhibited apparent tolerance | drug resistance compared with wild-type Arabidopsis thaliana (longer roots and larger leaves) [5]: exhibited better drug resistance

B7: SEQ ID NO: 82: RdpA mutant L82H + V187L + F182W + G103L + R180E (protein)
chain: MHAALSPLSQRFERIAVQPLTGVLGAEITGVDLREPLDDSTWNEILDAFHTYQVIYFPGQAITNEQHIAFSRRFGPVDPVPHLKSIEGYPEVQMIRREANESLRVIGDDWHTDSTFLDAPPAAVVMRAIDVPEHGGDTGFLSMYTAWETLSPTMQATIEGLNVVHSATRVFGSLYQAQNERWSNTSLKVMDVDAGDRETVHPLVVTHPGSGRKGLYVNQVYCQRIEGMTDAESKPLLQFLYEHATRFDFTCRVRWKKDQVLVWDNLCTMHRAVPDYAGKFRYLTRTTVGGVRPAR
Conversion rate [1, 6]: 71.6% | drug resistance (tolerance to compound B) compared with wild-type plants [3]: exhibited better drug resistance | tolerance compared with the wild types (summary) [4]: exhibited apparent tolerance | drug resistance compared with wild-type Arabidopsis thaliana (longer roots and larger leaves) [5]: exhibited better drug resistance
